According to patent US20190010233A1 (JIANGSU HYAMAB PHARMACEUTICAL, published 2019):
Read-outs that look alike come from different tables or passages of the source. Blank lines part the entries; values can stand above or below the binder they belong to.

Key:
[1] = target: T1, full length cyno PD-L1 on cells (cyno, UniProt G7PSE7 19-290); assay: FACS CHO-K1-cPD-L1, 0.003 nM mAb
T1 construct: also called CHO-K1-cPD-L1

[2] = target: T2, full length human PD-L1 on cells (human, UniProt Q9NZQ7 19-290); assay: FACS CHOK1-hPD-L1, 30 nM mAb
T2 construct: Also used as the target of the cell-based functional assays (transfected stimulator cells; PD-L1 of the cells in the mixed lymphocyte reaction); also called CHO-K1-hPD-L1; CHOK1-hPD-L1
T2 sequence (Q9NZQ7 19-290 limits assumed): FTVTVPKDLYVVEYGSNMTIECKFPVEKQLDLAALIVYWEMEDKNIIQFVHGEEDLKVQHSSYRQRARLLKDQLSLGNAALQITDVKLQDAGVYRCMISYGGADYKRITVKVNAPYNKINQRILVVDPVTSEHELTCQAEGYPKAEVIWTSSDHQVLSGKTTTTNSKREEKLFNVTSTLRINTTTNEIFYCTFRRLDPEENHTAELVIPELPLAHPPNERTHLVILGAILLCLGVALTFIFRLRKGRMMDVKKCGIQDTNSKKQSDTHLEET

[3] = target: T1, full length cyno PD-L1 on cells; assay: FACS CHO-K1-cPD-L1, 0.3 nM mAb
[4] = target: T1, full length cyno PD-L1 on cells; assay: FACS CHO-K1-cPD-L1, 0.0003 nM mAb
[5] = target: T3, human PD-L1^ECD-hFc protein (human, UniProt Q9NZQ7 19-239, biotinylated in the PD-1 binding ELISA (Table 3) and in the Octet assay (Table 12)); assay: ELISA receptor-ligand blocking assay: PD-L1 protein coated, fully human antibody titrated, blocked ligand B7.1, inhibition rate (%)
T3 construct: The plain and the biotinylated protein are kept as one molecule; also called PD-L1-hFc; Immunogen A; not shown: human IgG Fc fragment (hFc)
T3 sequence (Q9NZQ7 19-239): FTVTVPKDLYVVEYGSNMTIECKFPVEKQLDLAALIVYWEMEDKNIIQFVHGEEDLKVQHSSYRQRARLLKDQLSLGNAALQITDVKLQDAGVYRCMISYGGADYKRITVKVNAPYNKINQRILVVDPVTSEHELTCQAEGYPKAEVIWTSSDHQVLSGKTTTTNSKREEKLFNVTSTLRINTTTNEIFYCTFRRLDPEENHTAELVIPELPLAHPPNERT

[6] = target: T4, recombinant His-tagged hPD-L1 ECD protein (human, UniProt Q9NZQ7 19-239); assay: SPR Biacore T200, mAb captured by anti-human Fc, His-tagged hPD-L1 ECD as analyte, 1:1 model
T4 construct: also called His-tagged human PD-L1 ECD protein; His-tagged PD-L1^ECD; not shown: His tag
T4 sequence (Q9NZQ7 19-239): as above
Description: Anti-human Fc IgG was immobilized on flow cells 1 and 2: HBS-EP+ (10 mM HEPES, 150 mM NaCl, 3 mM EDTA, 0.05% P20, pH 7.4) was used as miming buffer, and the immobilization of anti-human Fc IgG was carried out using the immobilization wizard template. Flow cells 1 and 2 of a Series S CM5 sensor chip were activated with freshly-mixed 50 mmol/L NHS and 200 mmol/L EDC. 20 μg/mL of anti-human Fc IgG diluted in 10 mM NaAC (pH 4.5) was injected into the activated flow cells 1 and 2. The remaining active coupling sites were blocked with 1M ethanolamine.
KD measurements were carried out with HBS-EP+ as the running buffer. Each antibody was injected over the CM5 sensor flow cell 2 with a flow rate of 10 μL/min to reach response 230 RU. […] Buffer flow was maintained for 400 seconds for dissociation measurements (30 μL/min). To remove the tested antibody from the surface, 10 mM glycine-HCl pH 1.5 was injected for 20 seconds (30 μL/min). Flow cell 1 was used as reference flow cell. The above steps were repeated for each concentration of serially-diluted His-tagged PD-L1^ECD protein. The KD value for each antibody was evaluated using Biacore T200 evaluation software 1.0, and the data was fit with a 1:1 binding model.

[7] = target: T2, full length human PD-L1 on cells; assay: FACS CHOK1-hPD-L1, 0.3 nM mAb
[8] = target: T2, full length human PD-L1 on cells; assay: FACS CHOK1-hPD-L1, 0.0003 nM mAb
[9] = target: T2, full length human PD-L1 on cells; assay: FACS CHOK1-hPD-L1, 0.03 nM mAb
[10] = target: T2, full length human PD-L1 on cells; assay: cell-based or functional assay
[11] = target: T1, full length cyno PD-L1 on cells; assay: FACS CHO-K1-cPD-L1, 0.03 nM mAb
[12] = target: T1, full length cyno PD-L1 on cells; assay: FACS CHO-K1-cPD-L1, 300 nM mAb
[13] = target: T1, full length cyno PD-L1 on cells; assay: FACS CHO-K1-cPD-L1, 30 nM mAb
[14] = target: T2, full length human PD-L1 on cells; assay: cell-based or functional assay; remark: listed apart in the source
[15] = target: T1, full length cyno PD-L1 on cells; assay: FACS CHO-K1-cPD-L1, 3 nM mAb
[16] = target: T3, human PD-L1^ECD-hFc protein; assay: ELISA receptor-ligand blocking assay: PD-L1 protein coated, fully human antibody titrated, blocked ligand PD-1, inhibition rate (%)
[17] = target: T2, full length human PD-L1 on cells; assay: cell-based or functional assay; remark: listed apart in the source
[18] = target: T2, full length human PD-L1 on cells; assay: FACS CHOK1-hPD-L1, 3 nM mAb
[19] = target: T2, full length human PD-L1 on cells; assay: FACS CHOK1-hPD-L1, 300 nM mAb
[20] = target: T2, full length human PD-L1 on cells; assay: FACS CHOK1-hPD-L1, 0.003 nM mAb
[21] = target: T2, full length human PD-L1 on cells; assay: cell-based or functional assay; remark: listed apart in the source
[22] = target: T2, full length human PD-L1 on cells; assay: cell-based or functional assay; remark: listed apart in the source

T1 sequence (G7PSE7 entry or part of it limits assumed): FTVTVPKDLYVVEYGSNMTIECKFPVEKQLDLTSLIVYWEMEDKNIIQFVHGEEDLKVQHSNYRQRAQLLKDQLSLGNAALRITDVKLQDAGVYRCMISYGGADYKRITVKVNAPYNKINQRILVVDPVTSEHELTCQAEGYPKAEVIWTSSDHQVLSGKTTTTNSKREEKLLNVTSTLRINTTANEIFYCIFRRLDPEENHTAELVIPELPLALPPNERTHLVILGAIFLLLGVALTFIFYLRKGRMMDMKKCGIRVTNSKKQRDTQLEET

Mean fluorescence intensity [1]: 8.94
Mean fluorescence intensity [2]: 620
Mean fluorescence intensity [3]: 243
Mean fluorescence intensity [4]: 5.47
IC50 (read off the curve) [5]: ~0.7 nM
Kd [6]: 0.643 nM
koff [6]: 0.000472 s⁻¹
kon [6]: 734000 M⁻¹ s⁻¹
Mean fluorescence intensity [7]: 217
Mean fluorescence intensity [8]: 6.53
Mean fluorescence intensity [9]: 36.5
IFN-γ (pg/mL), T cell stimulation assay, 0.001 µg/mL mAb [10]: 4030 pg/mL
IFN-γ (pg/mL), T cell stimulation assay, 0.01 µg/mL mAb [10]: 9200 pg/mL
IFN-γ (pg/mL), T cell stimulation assay, 0.1 µg/mL mAb [10]: 9840 pg/mL
IFN-γ (pg/mL), T cell stimulation assay, 1 µg/mL mAb [10]: 9960 pg/mL
IFN-γ (pg/mL), T cell stimulation assay, 10 µg/mL mAb [10]: 12500 pg/mL
Mean fluorescence intensity [11]: 64.1
Mean fluorescence intensity [12]: 538
Mean fluorescence intensity [13]: 529
IFN-γ (pg/mL), MLR, 0.001 µg/mL mAb [14]: 1080 pg/mL
IFN-γ (pg/mL), MLR, 0.01 µg/mL mAb [14]: 1650 pg/mL
IFN-γ (pg/mL), MLR, 0.1 µg/mL mAb [14]: 3010 pg/mL
IFN-γ (pg/mL), MLR, 1 µg/mL mAb [14]: 3760 pg/mL
IFN-γ (pg/mL), MLR, 10 µg/mL mAb [14]: 3400 pg/mL
Mean fluorescence intensity [15]: 521
IC50 (read off the curve) [16]: ~0.7 nM
IL-2 (pg/mL), MLR, 0.001 µg/mL mAb [17]: 210 pg/mL
IL-2 (pg/mL), MLR, 0.01 µg/mL mAb [17]: 283 pg/mL
IL-2 (pg/mL), MLR, 0.1 µg/mL mAb [17]: 730 pg/mL
IL-2 (pg/mL), MLR, 1 µg/mL mAb [17]: 736 pg/mL
IL-2 (pg/mL), MLR, 10 µg/mL mAb [17]: 842 pg/mL
Mean fluorescence intensity [18]: 619
Mean fluorescence intensity [19]: 633
Mean fluorescence intensity [20]: 10.4
B1: fully human anti-PD-L1 antibody 78A11F6 (antibody, human IgG4 S228P, kappa, V domains shown)
VH: EVQLVESGGGLVQPGGSLRLSCAASGITFSSYWMSWVRQTPGKGLEWVANIKQDGSEKYYVKSVKGRFTISRDNAKNSLYLQMNSLRAEDTAVYYCVRDRAVPGTGAFDIWGQGTMVIVSS
VL: DIQMTQSPSTLSASVGDRVTITCRASQSISNWLAWYQQKPGKAPKLLIYKASSLESGVPSRFSGSGSGTEFTLTISSLQPDDFATYYCQQYDSSLFTFGQGTKLEIKR
notes: also called 78A11F6 (fully human)

Mean fluorescence intensity [1]: 7.84
Mean fluorescence intensity [2]: 595
IL-2 (pg/mL), MLR, 0.001 µg/mL mAb [21]: 59.7 pg/mL
IL-2 (pg/mL), MLR, 0.01 µg/mL mAb [21]: 83.4 pg/mL
IL-2 (pg/mL), MLR, 0.1 µg/mL mAb [21]: 114 pg/mL
IL-2 (pg/mL), MLR, 1 µg/mL mAb [21]: 139 pg/mL
Mean fluorescence intensity [3]: 174
Mean fluorescence intensity [4]: 4.87
IC50 (read off the curve) [5]: ~1 nM
Kd [6]: 0.536 nM
koff [6]: 0.000757 s⁻¹
kon [6]: 1.41e+06 M⁻¹ s⁻¹
Mean fluorescence intensity [7]: 193
Mean fluorescence intensity [8]: 4.68
Mean fluorescence intensity [9]: 28.6
IFN-γ (pg/mL), T cell stimulation assay, 0.001 µg/mL mAb [10]: 4450 pg/mL
IFN-γ (pg/mL), T cell stimulation assay, 0.01 µg/mL mAb [10]: 10600 pg/mL
IFN-γ (pg/mL), T cell stimulation assay, 0.1 µg/mL mAb [10]: 12300 pg/mL
IFN-γ (pg/mL), T cell stimulation assay, 1 µg/mL mAb [10]: 12300 pg/mL
IFN-γ (pg/mL), T cell stimulation assay, 10 µg/mL mAb [10]: 14000 pg/mL
Mean fluorescence intensity [11]: 26.2
Mean fluorescence intensity [12]: 512
Mean fluorescence intensity [13]: 519
IFN-γ (pg/mL), MLR, 0.001 µg/mL mAb [14]: 957 pg/mL
IFN-γ (pg/mL), MLR, 0.01 µg/mL mAb [14]: 1080 pg/mL
IFN-γ (pg/mL), MLR, 0.1 µg/mL mAb [14]: 1990 pg/mL
IFN-γ (pg/mL), MLR, 1 µg/mL mAb [14]: 3040 pg/mL
IFN-γ (pg/mL), MLR, 10 µg/mL mAb [14]: 2590 pg/mL
IFN-γ (pg/mL), MLR, 0.001 µg/mL mAb [22]: 12500 pg/mL
IFN-γ (pg/mL), MLR, 0.01 µg/mL mAb [22]: 10000 pg/mL
IFN-γ (pg/mL), MLR, 0.1 µg/mL mAb [22]: 21000 pg/mL
IFN-γ (pg/mL), MLR, 1 µg/mL mAb [22]: 21500 pg/mL
IFN-γ (pg/mL), MLR, 10 µg/mL mAb [22]: 21400 pg/mL
Mean fluorescence intensity [15]: 495
IC50 (read off the curve) [16]: ~1 nM
IL-2 (pg/mL), MLR, 0.001 µg/mL mAb [17]: 205 pg/mL
IL-2 (pg/mL), MLR, 0.01 µg/mL mAb [17]: 218 pg/mL
IL-2 (pg/mL), MLR, 0.1 µg/mL mAb [17]: 563 pg/mL
IL-2 (pg/mL), MLR, 1 µg/mL mAb [17]: 716 pg/mL
IL-2 (pg/mL), MLR, 10 µg/mL mAb [17]: 791 pg/mL
Mean fluorescence intensity [18]: 576
Mean fluorescence intensity [19]: 602
Mean fluorescence intensity [20]: 7.6
B2: fully human anti-PD-L1 antibody 73D3G2 (antibody, human IgG4 S228P, kappa, V domains shown)
VH: EVQLVESGGGLVQPGGSLRLSCAASGFTFNTYWMNWVRQAPGRGLEWVANIKQDGGEKYYVDSVKGRFTISRDNAKNSLYLQMNSLRAEDTAMYYCARDGRSWYPDAFDIWGQGTVVTVSS
VL: DIQMTQSPSTLSASVGDRVTITCRASQSISTWLAWYQQKLGKAPKLLIYEVSILESGVPSRFSGSGSGTEFTLTISSLQPDDFATYYCQQYHSFSSFGGGTRVEIKR
notes: also called 73D3G2 (fully human)

Mean fluorescence intensity [1]: 9.85
Mean fluorescence intensity [2]: 380
IL-2 (pg/mL), MLR, 0.001 µg/mL mAb [21]: 43 pg/mL
IL-2 (pg/mL), MLR, 0.01 µg/mL mAb [21]: 92.2 pg/mL
IL-2 (pg/mL), MLR, 0.1 µg/mL mAb [21]: 118 pg/mL
IL-2 (pg/mL), MLR, 1 µg/mL mAb [21]: 148 pg/mL
Mean fluorescence intensity [3]: 107
Mean fluorescence intensity [4]: 5.31
IC50 (read off the curve) [5]: ~2 nM
Mean fluorescence intensity [7]: 116
Mean fluorescence intensity [8]: 6.61
Mean fluorescence intensity [9]: 23.1
Mean fluorescence intensity [11]: 18.8
Mean fluorescence intensity [12]: 299
Mean fluorescence intensity [13]: 335
IFN-γ (pg/mL), MLR, 0.001 µg/mL mAb [14]: 1880 pg/mL
IFN-γ (pg/mL), MLR, 0.01 µg/mL mAb [14]: 2580 pg/mL
IFN-γ (pg/mL), MLR, 0.1 µg/mL mAb [14]: 4930 pg/mL
IFN-γ (pg/mL), MLR, 1 µg/mL mAb [14]: 4280 pg/mL
IFN-γ (pg/mL), MLR, 10 µg/mL mAb [14]: 5260 pg/mL
Mean fluorescence intensity [15]: 375
IC50 (read off the curve) [16]: ~2 nM
Mean fluorescence intensity [18]: 435
Mean fluorescence intensity [19]: 382
Mean fluorescence intensity [20]: 7.3
B3: fully human anti-PD-L1 antibody 105C5D7 (antibody, V domains shown)
VH: EVQLVESGGGLVQPGGSLRLSCAASGFTFSSYWMSWVRQAPGKGLEWVANIKQDGNEKYYVDSVKGRFTISRDNAKNSLYLQMNSLRAEDTAVYYCARNIKWGDAFDIWGQGTMVTVSS
VL: DIQMTQSPSSLSASVGDRVTITCRASQSISSYLNWYQQKPGKAPKLLIYAASSLQSGVPSRFSGSGSGTDFTLTISSLQPEDFAIYSCQQSYSIPLTFGGGTKVEIKR
notes: also called 105C5D7 (fully human)
